# Measurements as given in patent publication US20250257357.
# Legend:
# [1] = target: C-terminal SNAP-tagged H3.3 G34R (UniProt P84243)
# [2] = target: C-terminal SNAP-tagged H3.3 K27M (UniProt P84243)
substance,measurement,setting,value
Polynucleotide Kinase 3′-Phosphatase (PNKP),NHEJ activity by random plasmid integration assay upon knockdown of PNKP,[1],it does reduce NHEJ in H3.3K27M and G34R cells
same,NHEJ activity by random plasmid integration assay upon knockdown of PNKP,[2],it does reduce NHEJ in H3.3K27M and G34R cells
